Source: patent publication US20120225049

How the values were obtained:
[1] = target: K85A-R86S-K87A mutant rat VAMP2 cytoplasmic portion 1-96 (UniProt P63045)
[2] = test system: Native guinea pig VAMP8 in isolated pancreatic zymogen granules
[3] = target: Assembled ternary SNARE complex (syntaxin1A 1-263 : SNAP25 : VAMP2 1-96) (UniProt P32851)
[4] = test system: Native guinea pig VAMP2 in isolated pancreatic zymogen granules
[5] = target: T1, Recombinant human VAMP8 (endobrevin) cytoplasmic portion 1-74 (UniProt Q9BV40)
T1 sequence: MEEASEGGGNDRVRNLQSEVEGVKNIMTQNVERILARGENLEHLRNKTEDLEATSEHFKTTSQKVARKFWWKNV

[6] = target: Recombinant wild type rat SNAP25 full length 1-206 (UniProt P60881)
Recombinant wild type rat SNAP25 full length 1-206, sequence (P60881 whole entry, looked up, tested part not stated): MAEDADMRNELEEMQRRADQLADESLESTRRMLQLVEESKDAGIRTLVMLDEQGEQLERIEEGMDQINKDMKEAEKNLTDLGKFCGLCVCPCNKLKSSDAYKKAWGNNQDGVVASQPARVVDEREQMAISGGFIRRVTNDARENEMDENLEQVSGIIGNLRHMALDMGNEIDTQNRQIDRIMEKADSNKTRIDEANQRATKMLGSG

K85A-R86S-K87A mutant rat VAMP2 cytoplasmic portion 1-96, sequence (P63045 1-96 K85A/R86S/K87A): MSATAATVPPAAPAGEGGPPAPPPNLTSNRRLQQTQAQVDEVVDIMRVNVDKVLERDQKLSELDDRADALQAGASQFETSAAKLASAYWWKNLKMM
Assembled ternary SNARE complex (syntaxin1A 1-263 : SNAP25 : VAMP2 1-96), sequence (P32851 whole entry, looked up, tested part not stated, one chain of several): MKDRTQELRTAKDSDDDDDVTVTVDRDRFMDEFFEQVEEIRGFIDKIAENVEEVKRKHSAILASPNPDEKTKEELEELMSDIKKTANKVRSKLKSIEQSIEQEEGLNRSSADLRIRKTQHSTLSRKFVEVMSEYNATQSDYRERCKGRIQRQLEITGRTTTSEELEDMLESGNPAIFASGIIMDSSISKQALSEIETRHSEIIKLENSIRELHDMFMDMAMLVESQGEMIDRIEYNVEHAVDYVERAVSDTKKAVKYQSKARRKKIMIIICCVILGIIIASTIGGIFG

## Fraction ν of Tityus serrulatus venom (Fx ν metalloprotease)
[1]
  proteolytic cleavage (PAGE, reverse phase chromatography, sequencing): these substitutions prevented the previously observed cleavage
[2]
  proteolytic cleavage (Western blot of isolated zymogen granules): VAMP8 is also a proteolytic target in ZG during incubation with Fx ν
[3]
  proteolytic cleavage (PAGE staining density, 60 min): a clear change in staining density indicating the occurrence of cleavage by Fx ν of both the assembled complex (not boiled, lane 3) and the unassembled SNARE complex proteins (boiled, lane 4)
[4]
  proteolytic cleavage (Western blot of isolated zymogen granules): whole TSV or Fx ν rapidly cleave VAMP2 (upper panel) even in short incubation periods (5 and 30 min)
[5]
  proteolytic cleavage (transblot, mass spectrometry): is cleaved upon exposure to Fx ν
[6]
  proteolytic cleavage (transblot): is a t-SNARE that is also cleaved by Fx ν
